Reference: PMC4683255, “Evidence for a Functional O-Linked N-Acetylglucosamine (O-GlcNAc) System in the Thermophilic Bacterium Thermobaculum terrenum*” (The Journal of Biological Chemistry, 2015)
Positions count from the first letter of the chain named. Blank lines part the entries; values can stand above or below the molecule they belong to. Where no end group is shown, it is not given here. The star is where a group is joined. βGlcNAc = CC(=O)N[C@@H]1[C@@H](O)[C@H](O)[C@@H](CO)O[C@H]1*

How the values were obtained:
TtOGT = biological target: T1, TtOGT (Thermobaculum terrenum, UniProt D1CIY5, K341M); experiment: X-ray crystal structure of complex, […] A; assay type: binding; conditions: co-crystallized with 10 mM UDP; active site; mutant stated in the crystallization methods; PDB code assigned by reader
T1 construct: gene Tter_2822; full-length, N-terminal GST fusion from E. coli BL21, GST cut off with PreScission protease (pGEX-6P-1)
T1 sequence (D1CIY5 entry or part of it K341M): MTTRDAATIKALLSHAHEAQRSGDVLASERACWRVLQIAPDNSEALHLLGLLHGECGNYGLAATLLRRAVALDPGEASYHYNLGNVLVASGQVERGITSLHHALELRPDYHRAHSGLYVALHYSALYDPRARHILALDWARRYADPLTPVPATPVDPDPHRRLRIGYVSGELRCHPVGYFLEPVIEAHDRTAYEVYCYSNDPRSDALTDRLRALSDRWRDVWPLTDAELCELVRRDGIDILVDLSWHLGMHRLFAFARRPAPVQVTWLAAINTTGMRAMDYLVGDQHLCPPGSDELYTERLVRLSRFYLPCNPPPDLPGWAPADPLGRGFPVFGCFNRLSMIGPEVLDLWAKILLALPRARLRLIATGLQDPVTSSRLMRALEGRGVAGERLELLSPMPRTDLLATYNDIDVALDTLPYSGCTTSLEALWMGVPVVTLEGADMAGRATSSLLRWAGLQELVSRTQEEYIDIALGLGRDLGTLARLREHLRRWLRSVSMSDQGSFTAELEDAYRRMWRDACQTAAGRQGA

TtOGA = biological target: T2, TtOGA (Thermobaculum terrenum, UniProt D1CDN2); experiment: fluorogenic 4MU-GlcNAc hydrolysis; Ki from IC50 by Cheng-Prusoff; assay type: biochemical; conditions: 4MU-GlcNAc 90 uM (= Km); 4 pM enzyme; 1 min preincubation
T2 construct: gene Tter_0116; full-length, N-terminal GST fusion from E. coli BL21, GST cut off with PreScission protease (pGEX-6P-1)
T2 sequence (D1CDN2 entry or part of it): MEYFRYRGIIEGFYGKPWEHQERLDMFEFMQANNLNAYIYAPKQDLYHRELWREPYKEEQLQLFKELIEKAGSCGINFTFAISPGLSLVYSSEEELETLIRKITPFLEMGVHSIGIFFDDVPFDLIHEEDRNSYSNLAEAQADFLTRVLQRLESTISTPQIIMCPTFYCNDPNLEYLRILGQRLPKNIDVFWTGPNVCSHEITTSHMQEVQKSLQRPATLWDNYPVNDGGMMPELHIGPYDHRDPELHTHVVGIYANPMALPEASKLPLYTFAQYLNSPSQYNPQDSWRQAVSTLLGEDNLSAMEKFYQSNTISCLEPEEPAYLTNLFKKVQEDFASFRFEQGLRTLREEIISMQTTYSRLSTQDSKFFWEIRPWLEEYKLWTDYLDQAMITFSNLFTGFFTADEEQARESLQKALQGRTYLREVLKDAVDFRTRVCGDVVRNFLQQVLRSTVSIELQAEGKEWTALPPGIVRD

[1] = biological target: T3, TtOGA D120N (Thermobaculum terrenum O-GlcNAcase orthologue, product of gene Tter_0116, catalytic acid mutant) (Thermobaculum terrenum strain YNP1, UniProt D1CDN2 1-474, D120N); experiment: crystal structure; co-crystallised: 40 mg/ml TtOGA D120N with 7.2 mM hTab1-O-GlcNAc peptide in 50 mM HEPES pH 7.5, 250 mM NaCl, 0.5 mM TCEP; sitting drops, 38% PEG 4000, 400 mM sodium acetate, 0.1 M Tris-HCl pH 8.5, 22 °C; 2.06 Å; conditions: both partners purified
T3 construct: O-GlcNAcase (GH84) orthologue TtOGA of Thermobaculum terrenum YNP1, gene Tter_0116, full length, cloned into pGEX-6P-1; GST removed with PreScission protease; also called D120N mutant of TtOGA; Ttoga product; source: E. coli BL21, purified (GSH-Sepharose, PreScission cleavage, Superdex 75); not shown: GST, N-terminal, cleaved
T3 sequence (looked up): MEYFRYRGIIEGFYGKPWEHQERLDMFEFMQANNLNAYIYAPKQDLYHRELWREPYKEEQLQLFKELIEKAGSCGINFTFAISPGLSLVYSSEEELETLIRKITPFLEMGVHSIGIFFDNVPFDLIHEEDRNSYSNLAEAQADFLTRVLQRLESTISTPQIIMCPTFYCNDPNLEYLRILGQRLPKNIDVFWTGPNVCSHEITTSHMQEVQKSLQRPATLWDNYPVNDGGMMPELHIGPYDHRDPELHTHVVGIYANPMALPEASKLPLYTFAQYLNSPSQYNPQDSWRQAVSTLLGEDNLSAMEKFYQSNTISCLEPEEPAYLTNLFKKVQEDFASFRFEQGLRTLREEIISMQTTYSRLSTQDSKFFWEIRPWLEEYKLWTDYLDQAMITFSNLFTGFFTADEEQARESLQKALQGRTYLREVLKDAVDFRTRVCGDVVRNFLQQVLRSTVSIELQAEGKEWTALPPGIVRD

[2] = substrate: CC(=O)N[C@H]1[C@H](Oc2ccc3c(C)cc(=O)oc3c2)O[C@H](CO)[C@@H](O)[C@@H]1O; experiment: fluorescence of released 4-methylumbelliferone, Michaelis-Menten fit; assay type: biochemical, Thermobaculum terrenum; conditions: TBS, 0.1 mg/ml BSA, 2% DMSO; 0.2 nM enzyme

Ki (TtOGA): 18 nM
Molecule: C=CC=CC(=O)N[C@H]1c2nc(CCc3ccccc3)cn2[C@H](CO)[C@@H](O)[C@@H]1O [GlcNAcstatin G]

binding result [1]: binds
B1: hTab1-O-GlcNAc peptide (392-VPYgSSAQ-398, gS is GlcNAcylated serine) (peptide)
peptide: VPYS(βGlcNAc)SAQ
notes: probably synthetic; also called hTab1 glycopeptide; glycopeptide derived from the validated hTab1 glycosylation site

The remaining lines, values behind:

Molecule: O=c1ccn([C@@H]2O[C@H](COP(=O)(O)OP(=O)(O)O)[C@@H](O)[C@H]2O)c(=O)[nH]1 [UDP]
X-ray crystal structure of complex, 2.80 A (TtOGT): TtOGT was co-crystallized with the product of O-GlcNAc transfer, UDP

B2: TtOGA (Thermobaculum terrenum ATCC BAA-798) (protein)
chain: T3 sequence (looked up) with N120D
notes: full-length, N-terminal GST fusion from E. coli BL21, GST cut off with PreScission protease (pGEX-6P-1)
Km [2]: 90 µM
kcat [2]: 180 s⁻¹
